Data published in FireProtDB.

[1] = Mus musculus, pH 6.88, 5 °C, Pressure, NMR, Tris 20 mM, reversible: yes, structure 1MBG
[2] = Bos taurus, pH 8, Thermal, DSC, HEPES 50mM, NaCl 150mM, structure 1IHG
[3] = Salmo salar, pH 7.1, Thermal, CD, HEPES 10 mM, NaCl MgCl2 30 mM 3mM
[4] = Homo sapiens, pH 7.3, 25 °C, GdnHCl, Fluorescence, Na2HPO4/NaH2PO4 20 mM, structure 1TIT
[5] = Homo sapiens, Thermal, DSC, 1 X - PBS, Mg2+ 0.5 mM, structure 1AJE

Sequence of Peptidyl-prolyl cis-trans isomerase D K227A, P26882 (P26882 whole entry K227A): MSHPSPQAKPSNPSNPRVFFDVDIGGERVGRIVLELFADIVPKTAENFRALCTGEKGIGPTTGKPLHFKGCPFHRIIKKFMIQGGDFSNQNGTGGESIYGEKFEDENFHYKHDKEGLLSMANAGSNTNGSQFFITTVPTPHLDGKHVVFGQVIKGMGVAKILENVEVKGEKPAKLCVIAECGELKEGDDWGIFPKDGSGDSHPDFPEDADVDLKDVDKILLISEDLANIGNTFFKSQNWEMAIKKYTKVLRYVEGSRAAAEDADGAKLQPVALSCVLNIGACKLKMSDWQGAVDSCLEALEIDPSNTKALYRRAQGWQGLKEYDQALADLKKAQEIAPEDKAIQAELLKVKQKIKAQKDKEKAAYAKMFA
Sequence of Fibronectin D1544N, P02751 (P02751 whole entry D1544N): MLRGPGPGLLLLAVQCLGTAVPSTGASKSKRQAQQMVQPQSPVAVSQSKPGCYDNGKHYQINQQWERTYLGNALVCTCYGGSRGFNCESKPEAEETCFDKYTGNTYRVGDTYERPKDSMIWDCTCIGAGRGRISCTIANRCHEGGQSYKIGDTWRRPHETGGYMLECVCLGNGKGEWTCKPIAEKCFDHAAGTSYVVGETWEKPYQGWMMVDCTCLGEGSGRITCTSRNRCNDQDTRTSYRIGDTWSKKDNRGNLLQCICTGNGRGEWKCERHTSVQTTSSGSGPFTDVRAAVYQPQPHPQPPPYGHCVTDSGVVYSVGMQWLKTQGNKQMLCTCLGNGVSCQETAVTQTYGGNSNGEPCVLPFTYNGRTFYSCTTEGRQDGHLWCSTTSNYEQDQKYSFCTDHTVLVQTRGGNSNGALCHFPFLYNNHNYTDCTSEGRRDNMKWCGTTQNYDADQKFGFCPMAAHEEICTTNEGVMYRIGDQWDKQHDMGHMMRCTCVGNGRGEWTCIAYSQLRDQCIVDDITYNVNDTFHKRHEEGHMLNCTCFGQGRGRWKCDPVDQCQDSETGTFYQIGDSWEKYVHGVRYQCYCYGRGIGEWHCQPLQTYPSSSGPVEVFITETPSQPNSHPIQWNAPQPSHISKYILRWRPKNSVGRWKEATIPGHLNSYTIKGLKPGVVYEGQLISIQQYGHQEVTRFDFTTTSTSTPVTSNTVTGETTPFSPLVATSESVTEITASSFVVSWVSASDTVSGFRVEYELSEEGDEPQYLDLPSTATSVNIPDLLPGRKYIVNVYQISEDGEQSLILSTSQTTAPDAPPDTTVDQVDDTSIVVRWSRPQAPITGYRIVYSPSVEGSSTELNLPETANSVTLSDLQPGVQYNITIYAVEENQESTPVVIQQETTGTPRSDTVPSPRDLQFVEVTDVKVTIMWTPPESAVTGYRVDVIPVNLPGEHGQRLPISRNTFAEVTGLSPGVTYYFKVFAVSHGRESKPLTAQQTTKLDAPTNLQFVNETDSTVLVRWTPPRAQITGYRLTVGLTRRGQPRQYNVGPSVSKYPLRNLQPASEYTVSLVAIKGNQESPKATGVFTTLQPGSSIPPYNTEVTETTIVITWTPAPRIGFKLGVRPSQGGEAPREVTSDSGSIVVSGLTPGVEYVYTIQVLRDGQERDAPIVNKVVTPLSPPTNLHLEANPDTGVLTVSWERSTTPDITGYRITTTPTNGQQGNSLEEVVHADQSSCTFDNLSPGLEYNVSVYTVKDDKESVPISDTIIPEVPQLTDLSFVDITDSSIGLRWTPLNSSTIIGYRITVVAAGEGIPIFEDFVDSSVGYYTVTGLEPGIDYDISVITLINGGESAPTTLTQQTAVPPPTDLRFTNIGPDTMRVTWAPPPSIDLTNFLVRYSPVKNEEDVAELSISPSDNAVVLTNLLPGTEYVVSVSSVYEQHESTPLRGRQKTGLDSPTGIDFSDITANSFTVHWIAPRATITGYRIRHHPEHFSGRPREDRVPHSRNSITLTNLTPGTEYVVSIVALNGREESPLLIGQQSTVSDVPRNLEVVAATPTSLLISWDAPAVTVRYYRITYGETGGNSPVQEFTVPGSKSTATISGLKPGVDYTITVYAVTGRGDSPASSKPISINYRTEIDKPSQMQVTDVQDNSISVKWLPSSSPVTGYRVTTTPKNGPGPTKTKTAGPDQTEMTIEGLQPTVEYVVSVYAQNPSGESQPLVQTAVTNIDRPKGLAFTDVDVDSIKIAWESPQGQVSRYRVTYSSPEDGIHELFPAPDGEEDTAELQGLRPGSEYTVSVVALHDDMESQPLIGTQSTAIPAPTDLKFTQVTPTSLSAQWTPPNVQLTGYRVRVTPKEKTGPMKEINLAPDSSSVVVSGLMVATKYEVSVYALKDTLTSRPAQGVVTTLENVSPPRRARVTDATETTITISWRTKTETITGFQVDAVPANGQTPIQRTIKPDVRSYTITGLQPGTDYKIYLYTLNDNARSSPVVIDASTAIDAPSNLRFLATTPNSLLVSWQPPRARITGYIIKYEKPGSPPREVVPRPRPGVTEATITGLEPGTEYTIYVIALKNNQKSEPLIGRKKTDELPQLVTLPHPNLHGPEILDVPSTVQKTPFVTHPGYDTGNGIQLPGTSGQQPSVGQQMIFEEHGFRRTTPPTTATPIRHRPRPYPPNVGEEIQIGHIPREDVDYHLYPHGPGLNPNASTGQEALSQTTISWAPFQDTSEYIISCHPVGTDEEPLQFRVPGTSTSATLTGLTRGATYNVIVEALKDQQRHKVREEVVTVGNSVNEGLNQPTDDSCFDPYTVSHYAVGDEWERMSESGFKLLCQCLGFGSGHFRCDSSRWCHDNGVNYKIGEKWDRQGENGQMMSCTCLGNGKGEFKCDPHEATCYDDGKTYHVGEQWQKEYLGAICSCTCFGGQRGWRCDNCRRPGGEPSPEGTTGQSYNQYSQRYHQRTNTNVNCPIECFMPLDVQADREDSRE
Sequence of Cell division control protein 42 homolog T35A, P60953 (P60953 whole entry T35A): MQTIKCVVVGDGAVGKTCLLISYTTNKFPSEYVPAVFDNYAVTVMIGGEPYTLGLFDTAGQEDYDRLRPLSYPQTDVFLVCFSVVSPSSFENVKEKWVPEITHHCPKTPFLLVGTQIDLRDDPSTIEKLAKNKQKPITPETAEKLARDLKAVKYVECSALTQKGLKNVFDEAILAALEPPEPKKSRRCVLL
Sequence of Transcriptional activator Myb V103L, P06876 (P06876 whole entry V103L): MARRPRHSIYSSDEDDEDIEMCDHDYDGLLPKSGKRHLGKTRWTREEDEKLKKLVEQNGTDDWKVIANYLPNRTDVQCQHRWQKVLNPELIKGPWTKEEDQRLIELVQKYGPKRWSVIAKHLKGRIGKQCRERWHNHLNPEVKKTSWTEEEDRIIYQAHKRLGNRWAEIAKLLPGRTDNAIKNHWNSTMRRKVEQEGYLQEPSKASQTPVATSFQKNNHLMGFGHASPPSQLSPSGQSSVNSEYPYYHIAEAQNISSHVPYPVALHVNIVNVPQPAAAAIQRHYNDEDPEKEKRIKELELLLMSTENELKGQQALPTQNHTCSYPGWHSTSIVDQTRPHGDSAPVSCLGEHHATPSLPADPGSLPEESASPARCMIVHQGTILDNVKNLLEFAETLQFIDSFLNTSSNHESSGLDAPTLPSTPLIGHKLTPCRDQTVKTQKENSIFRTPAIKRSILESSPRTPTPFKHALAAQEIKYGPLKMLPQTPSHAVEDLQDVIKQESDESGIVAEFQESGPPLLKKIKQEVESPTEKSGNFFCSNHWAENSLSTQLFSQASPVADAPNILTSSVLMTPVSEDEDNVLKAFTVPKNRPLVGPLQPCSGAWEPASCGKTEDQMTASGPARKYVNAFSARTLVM
Sequence of Tropomyosin alpha-1 chain G24A|G27A, Q91472 G24A G27A (Q91472 entry or part of it G24A|G27A | G24A G27A): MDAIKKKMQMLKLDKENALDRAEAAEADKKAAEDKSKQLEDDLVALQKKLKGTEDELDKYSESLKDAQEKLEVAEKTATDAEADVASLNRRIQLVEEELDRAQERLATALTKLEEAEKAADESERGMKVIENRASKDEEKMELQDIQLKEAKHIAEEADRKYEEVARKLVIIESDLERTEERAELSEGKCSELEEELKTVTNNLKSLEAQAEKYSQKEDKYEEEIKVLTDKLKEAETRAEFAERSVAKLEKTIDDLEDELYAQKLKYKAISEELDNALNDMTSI

Substance: Transcriptional activator Myb V103L, P06876
- ddG of mutation (higher = less stable) [1]: -0.48 kcal/mol
- unfolding free energy [1]: 1.75 kcal/mol

Substance: Peptidyl-prolyl cis-trans isomerase D K227A, P26882
- Tm [2]: 45.2 °C
- change of melting temperature, mutant - wild type (higher = more stable) [2]: 0.12 °C
- unfolding enthalpy (calorimetric) [2]: 159 kcal/mol

Substance: Tropomyosin alpha-1 chain G24A|G27A, Q91472 G24A G27A
- Tm [3]: 38.1 °C
- change of melting temperature, mutant - wild type (higher = more stable) [3]: 1.1 °C

Substance: Titin F12749L, Q8WZ42
- ddG of mutation (higher = less stable) (Homo sapiens, pH 7.4, 25 °C, GdnHCl, CD, PBS, structure 1TIT): 3.06 kcal/mol

Substance: Titin C12723S|C12739S, Q8WZ42 C12723S C12739S
- ddG of mutation (higher = less stable) [4]: -3.2 kcal/mol
- denaturant m value [4]: 2.8 kcal/mol/M

Substance: Cell division control protein 42 homolog T35A, P60953
- Tm [5]: 64.2 °C
- change of melting temperature, mutant - wild type (higher = more stable) [5]: 0.7 °C

Substance: Fibronectin D1544N, P02751
- Tm (Homo sapiens, pH 2.4, Thermal, CD, glycine hydrochloride 20 mM, NaCl 1 M, reversible: yes, structure 1TTG): 82 °C
- Tm (Homo sapiens, pH 7, Thermal, CD, sodium phosphate 20 mM, NaCl 0.1 M, reversible: yes, structure 1TTG): 69 °C
- Tm (Homo sapiens, pH 7, Thermal, CD, sodium phosphate 20 mM, NaCl 1 M, reversible: yes, structure 1TTG): 80 °C
